Experimental data: the supplement of paper PMC10126150
± gives the standard deviation of the averaged measurements.

Test system: ATP
Assay: switch fluorescence ratio, 500 uM ATP over buffer (Cy3 cluster intensity, sum of 5 cycles each) (fold (ratio)); higher = stronger signal-on switching upon ATP binding; sequences stand for … in TCGTCGGCAGCGTCAGATGTGTATAAGAGACAGTTTTTTTTTTTTTTTTTTTTTTTTT…TC
Conditions: aptamer strand: ATP DNA aptamer (quencher-CACCTGGGGGAGTATTGCGGAGGAAGG + anchor), 100 nM annealed; ATP concentration: 500 uM
How it was run: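 Clusters with intensities outside 100-1000 RFU were excluded. The remaining Cy3-labelled switching-strand clusters on a modified Illumina MiSeq flow-cell had been annealed to 100 nM quencher-labelled ATP aptamer and imaged in selection buffer, then after 15 min with 500 uM ATP at 22 °C, for five cycles separated by NaOH stripping and re-annealing. The fluorescence ratio, averaged per switch-domain sequence, is each cluster's summed target-cycle Cy3 intensity over its summed buffer-cycle Cy3 intensity.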
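Also: ATP exposure 15 min at 22 °C before imaging.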

Sequence	switch fluorescence ratio
AATCTGGGCG	0.985 ± 0.016
GAGTAATCGG	1.01 ± 0.049
GCATTTAAGT	0.993 ± 0.06
GGAAGGGTTG	1 ± 0.034
CTATTGAATC	1.022 ± 0.0015
TCTGGGTATG	0.988 ± 0.016
CGTGGGAGAA	1.09 ± 0.084
ATAAGTGAAA	1.07 ± 0.15
AAAGTGTTCG	0.9797 ± 0.0097
TTAAGTAGGA	1 ± 0.017
GGGTGAGGTA	0.97888 ± 0.00072
GGGTACTGGG	1 ± 0.034
TGGGTCAAAG	0.9881 ± 0.0088
CCTTTGGGCA	1.05 ± 0.023
TGATTTTCGG	0.974 ± 0.032
TAAGTGGGTT	0.992 ± 0.034
CGGGACTTGT	0.952 ± 0.067
GTGTTAAGTA	1.0306 ± 0.00088
TGTAGGTGGT	0.978 ± 0.016
CTTAGGCGGG	1 ± 0.059
CCAGGGGGGG	1.24 ± 0.32
GGGCTGGATG	0.9932 ± 0.0047
TCAAATCGTT	0.992 ± 0.0074

Sequence	switch fluorescence ratio
TTCTTGACTT	1.02 ± 0.011
GATTTATTGG	0.983 ± 0.032
CACACAAATT	1.18 ± 0.15
GCAAGGGGGG	1.09 ± 0.081
ATTAAGCGGC	1.05 ± 0.13
CCTTCGGAGT	3.99 ± 2.3
AAAAACGGTG	1.05 ± 0.084
TTCAATGGTG	1.023 ± 0.0014
TGAATTTGGG	0.997 ± 0.064
GTGACAGGGG	1.05 ± 0.033
AATATAGGGG	0.996 ± 0.017
ATGTGGTCT	1.02 ± 0.03
GCGGGATGTC	0.972 ± 0.02
CGTGCTTGTA	1.01 ± 0.025
TTATTGCATG	0.96 ± 0.013
AGTTTATCAT	0.9996 ± 0.0089
CGGAGTAGGG	1.058 ± 0.0023
TACGGGTGGG	1.169 ± 0.01
ATGTTTTATA	1.02 ± 0.023
ATATGAGTGA	0.985 ± 0.013
CGTTTACGCC	1 ± 0.046
TGGAGTTTAA	1 ± 0.026
TGCGAGGATG	1 ± 0.0028

Sequence	switch fluorescence ratio
GATTCATGGG	1.01 ± 0.0043
AGGGAGGATC	1.02 ± 0.017
TTAAAGGGGG	1.02 ± 0.086
GAAATCGTTT	0.9949 ± 0.0082
GGTACTACGG	1.05 ± 0.017
TTTACATAAG	1 ± 0.043
ATGGGCTGAA	1.021 ± 0.0092
TGACTGGGTT	1.02 ± 0.047
GGGGGATATC	0.994 ± 0.06
TTTGTCTTGG	0.972 ± 0.031
ACTTGTGAAG	1.0247 ± 0.00063
CCTCGCGGGG	1.08 ± 0.032
AGTAAAGTGC	1.03 ± 0.045
AATAGTTTTT	0.986 ± 0.055
TTAGGGGATT	1.01 ± 0.027
AGCGTCAACG	0.954 ± 0.015
TCGAAGTATC	1.12 ± 0.058
CTACTGCCGT	1.02 ± 0.034
CCGTTTATAT	1.4 ± 0.13
GGGATGCCAA	0.9794 ± 0.0018
ACGTTAGGGA	1.07 ± 0.091
TGCCTTATGG	0.983 ± 0.045
GTTCAGAGGG	1.05 ± 0.1

Sequence	switch fluorescence ratio
CTGATTATGT	1.02 ± 0.015
AACAGGACGC	1.08 ± 0.1
TAAGCGCAGA	1.01 ± 0.03
GCCAATGATC	1.01 ± 0.073
TCTTGAAGG	0.953 ± 0.023
CAACGTTTTT	1.01 ± 0.037
ACAAGGGATG	0.972 ± 0.041
TAGGATGGCT	0.959 ± 0.072
GCGGGCCGGG	0.988 ± 0.058
GTTATCGTGC	0.992 ± 0.059
AGTTTTTGGC	0.999 ± 0.021
AGGGGGGATC	1.01 ± 0.046
AGAAGCTAAG	0.996 ± 0.015
TTGTAATAGG	1.27 ± 0.4
TGTTTGGTGC	1.54 ± 0.8
CTTTTGAGGG	0.974 ± 0.018
AGCGCGGCGC	1.01 ± 0.051
GAGAATTGAA	0.99 ± 0.014
CGAGCCCTTA	0.986 ± 0.059
CTGAAACAGC	1.06 ± 0.043
AAATAAATTG	0.999 ± 0.044
GGCATTATAA	0.99 ± 0.025
GGGGGCGGTA	1.02 ± 0.059

Sequence	switch fluorescence ratio
TTAGGTGGGC	1.08 ± 0.021
CCTAGTAGCG	1.01 ± 0.014
TTGATGGCGA	1.22 ± 0.3
GAGCTTGCTG	0.9992 ± 0.0083
TATTTCGGTT	1.002 ± 0.0096
TTTTTTAGCC	1.02 ± 0.091
CCATTAATAG	1.04 ± 0.057
ATAAGTATGT	1 ± 0.018
GGGGGGTACG	1 ± 0.05
GCAATAGGGT	1.37 ± 0.037
CCGGGGAACA	1.004 ± 0.0069
CGGACATTCA	1.041 ± 0.0082
GGAGGCCCCA	0.996 ± 0.033
CCGTAGGAGG	1 ± 0.021
GTGGTATCAT	0.978 ± 0.03
CGGTTGCATT	1.04 ± 0.031
AAGAAGCTGA	0.972 ± 0.019
ATTATTGATA	0.997 ± 0.036
GGCATCTAAG	0.997 ± 0.019
GAGAGTTGTG	0.988 ± 0.034
TCCTCAGGAT	1.02 ± 0.018
AATTTGTTTG	1 ± 0.013
GGGATCCATG	1.01 ± 0.019

Sequence	switch fluorescence ratio
AGCTGCCCCA	1.18 ± 0.13
AAGGTGGCCC	1.03 ± 0.023
ATGAGGTTGC	0.978 ± 0.011
AAAAACGTCT	1.1 ± 0.016
CCACGTTGAA	1.05 ± 0.033
TCTTTTGGAG	0.996 ± 0.045
ACCCAAACAA	1.06 ± 0.028
ATGAAAGTAG	1.005 ± 0.0012
TTGTTCAGGG	0.99 ± 0.013
ACCAGTGATG	1.01 ± 0.039
GTACTCATTT	1 ± 0.038
TCTAAATCTT	1.01 ± 0.011
TGCGGGGTCA	1.02 ± 0.034
AGATGTGCCT	1.01 ± 0.045
TTAATTGGGG	1.06 ± 0.1
ATGCACGTAT	1.03 ± 0.048
GGTATATCTT	1.01 ± 0.076
ACTATCGGTT	1.07 ± 0.075
GATTAAGAGG	1.01 ± 0.039
AGTTGTGTCG	0.955 ± 0.02
TTTTTAGACG	0.981 ± 0.057
GGGCATATGG	1.05 ± 0.015
CAGATTAAGT	0.992 ± 0.03

Sequence	switch fluorescence ratio
AGGAGTTTCG	1.01 ± 0.044
TGAAATCATA	0.996 ± 0.037
TCAATGTGCG	1.013 ± 0.01
TAGTTAGTTT	1.02 ± 0.029
AATTATGGGA	0.986 ± 0.051
TATTAACGTA	1.08 ± 0.022
TAAAATGCAT	0.979 ± 0.024
GGTGCATATT	1.06 ± 0.081
GGTTGAATTG	0.974 ± 0.01
TTTGAAAACT	0.995 ± 0.024
ATAATTGAAG	0.99 ± 0.027
AGTCTGCCA	0.977 ± 0.015
TAGGTTAAAA	0.9786 ± 0.0041
ATGATACAGT	1.021 ± 0.0067
CATGATTTAT	1 ± 0.054
GCTGGGCACG	0.954 ± 0.015
CTATGTTTTG	0.979 ± 0.017
TTTTTTATGC	0.997 ± 0.018
CTGGGGTCGG	1 ± 0.052
